For the test, the target named is T1, feline NGF (feline, UniProt A0ABI7YSK6 122-241).
T1 construct: domain: C-terminal portion; also called fNGF; feline beta-NGF
Nature of the test: ELISA, feline NGF. On the technique in general: An ELISA detects its analyte on a solid surface through an enzyme-linked reagent.

Usually EC50 stands for the concentration needed to bring the measured effect to its halfway point.

B1: human-feline chimeric Fulranumab (antibody)
heavy: EVQLVESGGGLVQPGGSLRLSCAASGFTLRSYSMNWVRQAPGKGLEWVSYISRSSHTIFYADSVKGRFTISRDNAKNSLYLQMDSLRDEDTAMYYCARVYSSGWHVSDYFDYWGQGILVTVSSASTTAPSVFPLAPSCGTTSGATVALACLVLGYFPEPVTVSWNSGALTSGVHTFPAVLQASGLYSLSSMVTVPSSRWLSDTFTCNVAHPPSNTKVDKTVRKTDHPPGPKPCDCPKCPPPEMLGGPSIFIFPPKPKDTLSISRTPEVTCLVVALGPDDSDVQITWFVDNTQVYTAKTSPREEQFASTYRVVSVLPILHQDWLKGKEFKCKVNSKSLPSPIERTISKAKGQPHEPQVYVLPPAQEELSRNKVSVTCLIKSFHPPDIAVEWEITGQPEPENNYRTTPPQLDSDGTYFVYSKLSVDRSHWQRGNTYTCSVSHEALHSHHTQKSLTQSPGK
light: AIQLTQSPSSLSASVGDRVTITCRASQGISSALAWYQQKPGKAPKLLIYDASSLESGVPSRFSGSGSGTDFTLTISSLQPEDFATYYCQQFNSYPLTFGGGTKVEIKRSDAQPSVFLFQPSLDELHTGSASIVCILNDFYPKEVNVKWKVDGVVQNKGIQESTTEQNSKDSTYSLSSTLTMSSTEYQSHEKFSCEVTHKSLASTLVKSFNRSECQRE
notes: Chains from the 'List of heavy and light chains to make human-feline chimeric and felinized antibodies'; also called Ful Chimeric; Ful Chim
Molecule B1 gave an EC50 of 0.018 to 0.019 nM.

Values taken from patent US20250346657A1 (INTERVET, published 2025).
